Results published in patent publication US20110160440A1 (GENENCOR INTERNATIONAL, published 2011).

T1: CEA (carcinoembryonic antigen, Biodesign Intl., Saco, Me.) (UniProt P06731 35-685)
T1 construct: also called immobilized CEA
T1 sequence: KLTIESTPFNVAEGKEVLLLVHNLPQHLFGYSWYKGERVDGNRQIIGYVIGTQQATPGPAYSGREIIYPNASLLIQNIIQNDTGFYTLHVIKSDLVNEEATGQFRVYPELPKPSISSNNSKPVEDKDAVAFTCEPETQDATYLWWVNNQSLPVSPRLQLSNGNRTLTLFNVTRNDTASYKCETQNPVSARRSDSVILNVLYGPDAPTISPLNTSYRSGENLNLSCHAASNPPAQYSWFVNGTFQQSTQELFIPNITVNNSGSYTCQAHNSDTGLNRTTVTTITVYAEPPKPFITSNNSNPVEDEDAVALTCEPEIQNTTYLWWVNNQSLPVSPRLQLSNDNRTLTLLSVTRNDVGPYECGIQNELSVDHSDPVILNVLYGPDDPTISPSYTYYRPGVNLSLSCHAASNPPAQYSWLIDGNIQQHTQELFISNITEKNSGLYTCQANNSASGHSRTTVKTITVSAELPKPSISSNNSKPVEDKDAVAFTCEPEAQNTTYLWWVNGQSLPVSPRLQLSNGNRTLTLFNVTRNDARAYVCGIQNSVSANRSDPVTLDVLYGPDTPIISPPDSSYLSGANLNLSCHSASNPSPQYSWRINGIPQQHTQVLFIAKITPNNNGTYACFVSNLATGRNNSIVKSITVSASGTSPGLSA


Molecular target: T1, CEA (carcinoembryonic antigen, …)
Assay: CEA-coated plate at pH 6.5 and pH 7.4, bound BLA activity

Binder	binding result
NA08.1 (scFv) QVQLQQSGAELVKSGGSVKLSCTASGFNIKDSYMHWVRQGPEQGLEWIGHIDPENGDTEYAPKFQGKATFTTDTSSNTAYLQLSSLTSEDTAVYYCNEGTPTGPYYFDYWGQGTTVTVSSGGGGSGGGGSGGGGSENVLTQSPAIVSASPGEKVTITCSASSSVSAMHWFQQKPGTSPKLVIYSTSNLASGVPARFSGSGSGTSYSLTISRMEAEDAATYYCQQRSSYPLTFGAGTKLELKRAATPVSEKQLAEVVANTITPLMKAQSVPGMAVAVIYQGKPHYYTFGKADIAANKPVTPQTLFELGSISKTFTGVLGGDAIARGEISLDDAVTRYWPQLTGKQWQGIRMLDLATYTAGGLPLQVPDEVTDNASLLRFYQNWQPQWKPGTTRLYANASIGLFGALAVKPSGMPYEQAMTTRVLKPLKLDHTWINVPKAEEAHYAWGYRDGKAVRVSPGMLDAQAYGVKTNVQDMANWVMANMAPENVADASLKQGIALAQSRYWRIGSMYQGLGWEMLNWPVEANTVVETSFGNVALAPLPVAEVNPPAPPVKASWVHKTGSTGGFGSYVAFIPEKQIGIVMLANTSYPNPARVEAAYHILEALQ	binds
NA08.3 (scFv) QVQLQQSGAELVKSGGSVKLSCTASGFNIKDSYMHWVRQGPEQGLEWIGWIDPENGDTEYAPKFQGKATFTTDTSSNTAYLQLSSLTSEDTAVYYCNEGTPTGPYYFDYWGQGTTVTVSSGGGGSGGGGSGGGGSENVLTQSPAIVSASPGEKVTITCSASSSVSYMHWFQQKPGTSPKLVIYSTSNLADGVPARFSGSGSGTSYSLTISRMEAEDAATYYCQQRDSYPLTFGAGTKLELKRAATPVSEKQLAEVVANTITPLMKAQSVPGMAVAVIYQGKPHYYTFGKADIAANKPVTPQTLFELGSISKTFTGVLGGDAIARGEISLDDAVTRYWPQLTGKQWQGIRMLDLATYTAGGLPLQVPDEVTDNASLLRFYQNWQPQWKPGTTRLYANASIGLFGALAVKPSGMPYEQAMTTRVLKPLKLDHTWINVPKAEEAHYAWGYRDGKAVRVSPGMLDAQAYGVKTNVQDMANWVMANMAPENVADASLKQGIALAQSRYWRIGSMYQGLGWEMLNWPVEANTVVETSFGNVALAPLPVAEVNPPAPPVKASWVHKTGSTGGFGSYVAFIPEKQIGIVMLANTSYPNPARVEAAYHILEALQ	binds
NA08.14 (scFv) QVQLQQSGAELVKSGGSVKLSCTASGFNIKDSYMHWVRQGPEQGLEWIGWIDPENGDTEYAPKFQGKATFTTDTSSNTAYLQLSSLTSEDTAVYYCNEGTDTGPYYFDYWGQGTTVTVSSGGGGSGGGGSGGGGSENVLTQSPAIVSASPGEKVTITCSASSSVSYMHWFQQKPGTSPKLVIYSTSNLASGVPARFSGSGSGTSYSLTISRMEAEDAATYYCQQRSSYPLTFGAGTKLELKRAATPVSEKQLAEVVANTITPLMKAQSVPGMAVAVIYQGKPHYYTFGKADIAANKPVTPQTLFELGSISKTFTGVLGGDAIARGEISLDDAVTRYWPQLTGKQWQGIRMLDLATYTAGGLPLQVPDEVTDNASLLRFYQNWQPQWKPGTTRLYANASIGLFGALAVKPSGMPYEQAMTTRVLKPLKLDHTWINVPKAEEAHYAWGYRDGKAVRVSPGMLDAQAYGVKTNVQDMANWVMANMAPENVADASLKQGIALAQSRYWRIGSMYQGLGWEMLNWPVEANTVVETSFGNVALAPLPVAEVNPPAPPVKASWVHKTGSTGGFGSYVAFIPEKQIGIVMLANTSYPNPARVEAAYHILEALQ	binds
NA08.12 (scFv) QVQLQQSGAELVKSGGSVKLSCTASGFNIKDSYMHWVRQGPEQGLEWIGWIDPENGDTEYAPKFQGKATFTTDTSSNTAYLQLSSLTSEDTAVYYCNEGTPHGPYYFDYWGQGTTVTVSSGGGGSGGGGSGGGGSENVLTQSPAIVSASPGEKVTITCSASSSVSAMHWFQQKPGTSPKLVIYSTSNLASGVPARFSGSGSGTSYSLTISRMEAEDAATYYCQQRDSYPLTFGAGTKLELKRAATPVSEKQLAEVVANTITPLMKAQSVPGMAVAVIYQGKPHYYTFGKADIAANKPVTPQTLFELGSISKTFTGVLGGDAIARGEISLDDAVTRYWPQLTGKQWQGIRMLDLATYTAGGLPLQVPDEVTDNASLLRFYQNWQPQWKPGTTRLYANASIGLFGALAVKPSGMPYEQAMTTRVLKPLKLDHTWINVPKAEEAHYAWGYRDGKAVRVSPGMLDAQAYGVKTNVQDMANWVMANMAPENVADASLKQGIALAQSRYWRIGSMYQGLGWEMLNWPVEANTVVETSFGNVALAPLPVAEVNPPAPPVKASWVHKTGSTGGFGSYVAFIPEKQIGIVMLANTSYPNPARVEAAYHILEALQ	binds
NA08.17 (scFv) QVQLQQSGAELVKSGGSVKLSCTASGFNIKDSYMHWVRQGPEQGLEWIGHIDPENGDTEYAPKFQGKATFTTDTSSNTAYLQLSSLTSEDTAVYYCNEGTPTGPYYFDYWGQGTTVTVSSGGGGSGGGGSGGGGSENVLTQSPAIVSASPGEKVTITCSASSSVSYMHWFQQKPGTSPKLVIYDTSNLASGVPARFSGSGSGTSYSLTISRMEAEDAATYYCQQRSSYPLTFGAGTKLELKRAATPVSEKQLAEVVANTITPLMKAQSVPGMAVAVIYQGKPHYYTFGKADIAANKPVTPQTLFELGSISKTFTGVLGGDAIARGEISLDDAVTRYWPQLTGKQWQGIRMLDLATYTAGGLPLQVPDEVTDNASLLRFYQNWQPQWKPGTTRLYANASIGLFGALAVKPSGMPYEQAMTTRVLKPLKLDHTWINVPKAEEAHYAWGYRDGKAVRVSPGMLDAQAYGVKTNVQDMANWVMANMAPENVADASLKQGIALAQSRYWRIGSMYQGLGWEMLNWPVEANTVVETSFGNVALAPLPVAEVNPPAPPVKASWVHKTGSTGGFGSYVAFIPEKQIGIVMLANTSYPNPARVEAAYHILEALQ	binds
NA08.13 (scFv) QVQLQQSGAELVKSGGSVKLSCTASGFNIKDSYMHWVRQGPEQGLEWIGWIDPENGDTEYAPKFHGKATFTTDTSSNTAYLQLSSLTSEDTAVYYCNEGTPTGPYYFDYWGQGTTVTVSSGGGGSGGGGSGGGGSENVLTQSPAIVSASPGEKVTITCSASSSVSYMHWFQQKPGTSPKLVIYDTSNLASGVPARFSGSGSGTSYSLTISRMEAEDAATYYCQQRDSYPLTFGAGTKLELKRAATPVSEKQLAEVVANTITPLMKAQSVPGMAVAVIYQGKPHYYTFGKADIAANKPVTPQTLFELGSISKTFTGVLGGDAIARGEISLDDAVTRYWPQLTGKQWQGIRMLDLATYTAGGLPLQVPDEVTDNASLLRFYQNWQPQWKPGTTRLYANASIGLFGALAVKPSGMPYEQAMTTRVLKPLKLDHTWINVPKAEEAHYAWGYRDGKAVRVSPGMLDAQAYGVKTNVQDMANWVMANMAPENVADASLKQGIALAQSRYWRIGSMYQGLGWEMLNWPVEANTVVETSFGNVALAPLPVAEVNPPAPPVKASWVHKTGSTGGFGSYVAFIPEKQIGIVMLANTSYPNPARVEAAYHILEALQ	binds
NA08.9 (scFv) QVQLQQSGAELVKSGGSVKLSCTASGFNIKDSYMHWVRQGPEQGLEWIGWIDPENGDTEYAPKFQGKATFTTDTSSNTAYLQLSSLTSEDTAVYYCNEGTPTGPYYFDYWGQGTTVTVSSGGGGSGGGGSGGGGSENVLTQSPAIVSASPGEKVTITCSASSSVSAMHWFQQKPGTSPKLVIYSTSNLASGVPARFSGSGSGTSYSLTISRMEAEDAATYYCQQRSSYPLTFGAGTKLELKRAATPVSEKQLAEVVANTITPLMKAQSVPGMAVAVIYQGKPHYYTFGKADIAANKPVTPQTLFELGSISKTFTGVLGGDAIARGEISLDDAVTRYWPQLTGKQWQGIRMLDLATYTAGGLPLQVPDEVTDNASLLRFYQNWQPQWKPGTTRLYANASIGLFGALAVKPSGMPYEQAMTTRVLKPLKLDHTWINVPKAEEAHYAWGYRDGKAVRVSPGMLDAQAYGVKTNVQDMANWVMANMAPENVADASLKQGIALAQSRYWRIGSMYQGLGWEMLNWPVEANTVVETSFGNVALAPLPVAEVNPPAPPVKASWVHKTGSTGGFGSYVAFIPEKQIGIVMLANTSYPNPARVEAAYHILEALQ	binds
NA08.4 (scFv) QVQLQQSGAELVKSGGSVKLSCTASGFNIKDSYMHWVRQGPEQGLEWIGWIDPENGDTEYAPKFQGKATFTTDTSSNTAYLQLSSLTSEDTAVYYCNEGDPTGPYYFDYWGQGTTVTVSSGGGGSGGGGSGGGGSENVLTQSPAIVSASPGEKVTITCSASSSVSYMHWFQQKPGTSPKLVIYSTSNLADGVPARFSGSGSGTSYSLTISRMEAEDAATYYCQQRSSYPLTFGAGTKLELKRAATPVSEKQLAEVVANTITPLMKAQSVPGMAVAVIYQGKPHYYTFGKADIAANKPVTPQTLFELGSISKTFTGVLGGDAIARGEISLDDAVTRYWPQLTGKQWQGIRMLDLATYTAGGLPLQVPDEVTDNASLLRFYQNWQPQWKPGTTRLYANASIGLFGALAVKPSGMPYEQAMTTRVLKPLKLDHTWINVPKAEEAHYAWGYRDGKAVRVSPGMLDAQAYGVKTNVQDMANWVMANMAPENVADASLKQGIALAQSRYWRIGSMYQGLGWEMLNWPVEANTVVETSFGNVALAPLPVAEVNPPAPPVKASWVHKTGSTGGFGSYVAFIPEKQIGIVMLANTSYPNPARVEAAYHILEALQ	binds
